The labels stand for the following.
B1: HDV Ribozyme (parent)
chain: GGCCGGCAUGGUCCCAGCCUCCUCGCUGGCGCCGGCUGGGCAACAUUCCGAGGGGACCGUCCCCUCGGUAAUGGCGAAUGGGACCCA

Variants of B1 are the subject of the data set. Kind of data set: self-cleavage, relative activity (ratio to wild type); higher = more cleavage; co-transcriptional.
On to G2U A16C, for which the self-cleavage is 0.
On to G2A A78U, for which the self-cleavage turned out to be 0.0674.
For G2C A77G, the self-cleavage stood at 0.0346.
Under G2C G28U stands 0.014; under G2C C86U, 0.0779.
Consider G2C C86A, for which the self-cleavage came to 0.128.
In the case of G1U U47G it was 0.405; in that of G2A A42G, 0.0302.
Regarding G2A A42C, the self-cleavage was 0.0432.
With G2A A42U, the self-cleavage amounted to 0.0804.
For G2A A51C, the self-cleavage was found to be 0.203.
In the case of G2A A51U, the self-cleavage worked out at 0.155.
Regarding G2A G25A, the self-cleavage was determined as 0.0346.
On to G2A G25C, for which the self-cleavage amounted to 0.0744.
Under G2A G25U stands 0.161; under G1U U72A, 0.466.
In the case of G1U U72C, the self-cleavage was found to be 0.237.
For G2C A8U, the self-cleavage amounted to 0.
For the variant G2C A8C, the self-cleavage was 0.0639.
Under G2A C19G stands 0.
In the case of G2C G29A it was 0.155; in that of G2C G29U, 0.0494.
In the case of G2A G5C it was 0.0419; in that of G2A G73C, 0.0608.
G2A U79A: the self-cleavage was 0.0225.
For G2A U79C, the self-cleavage was found to be 0.0804.
As for G2A U79G, the self-cleavage was found to be 0.089.
On to G2A G17C, for which the self-cleavage came out at 0.
As to G2A G17A, the self-cleavage was determined as 0.0604.
Take G2C U60C: the self-cleavage stood at 0.0545.
For G2C G10U, the self-cleavage worked out at 0.056.
With G2C G10C, the self-cleavage came to 0.
G2C G10A: the self-cleavage worked out at 0.145.
For the variant G2C U47C, the self-cleavage turned out to be 0.102.
For the variant G2A G31A, the self-cleavage came out at 0.0729.
Regarding G2A G31U, the self-cleavage amounted to 0.0205.
Turning to G2U C66G, the self-cleavage turned out to be 0.0198.
G2C G54U: the self-cleavage came to 0.0723.
For G2C G54A, the self-cleavage was determined as 0.0777.
With G2C G35A, the self-cleavage was 0.0623.
G2C G35C: the self-cleavage is 0.124.
Consider G2C G35U, for which the self-cleavage came out at 0.0747.
In the case of G1U U65G it was 0.17; in that of G1U U65A, 0.191; in that of G2C G81A, 0.0511.
As for G2C G31U, the self-cleavage turned out to be 0.109.
As for G2C G31C, the self-cleavage was determined as 0.0237.
In the case of G2U C41U it was 0.0419; in that of G2U C41G, 0.0119.
Take G2A G6C: the self-cleavage turned out to be 0.
In the case of G2A G6U it was 0.0683; in that of G2C C57A, 0.086.
On to G2C C30G, for which the self-cleavage turned out to be 0.0594.
Turning to G2C C30A, the self-cleavage was found to be 0.0875.
With G2U A87C, the self-cleavage came to 0.0661.
As for G2U A56C, the self-cleavage is 0.0405.
As for G2U A56U, the self-cleavage stood at 0.016.
In the case of G2C G17A it was 0; in that of G2C G17C, 0.0536; in that of G2A G10U, 0.0837.
In the case of G2A G10C it was 0.105; in that of G2C C85A, 0.0287.
With G2C C85G, the self-cleavage is 0.0563.
On to G2C C85U, for which the self-cleavage worked out at 0.0287.
In the case of G2U C15G it was 0.0282; in that of G2U C15U, 0.
For the variant G2A G38A, the self-cleavage was found to be 0.0314.
Regarding G2A G38C, the self-cleavage is 0.07.
G2U A70U: the self-cleavage turned out to be 0.0548.
Under G2U A70C stands 0.0373.
For the variant G2U A70G, the self-cleavage is 0.0715.
In the case of G2U C57A, the self-cleavage was 0.156.
Under G2U C63A stands 0.101.
On to G2U C63U, for which the self-cleavage was found to be 0.0545.
Take G2U C63G: the self-cleavage was found to be 0.0528.
G2A A77G: the self-cleavage worked out at 0.141.
In the case of G2A A77C, the self-cleavage was found to be 0.0437.
For the variant G2A A77U, the self-cleavage was 0.0631.
G2A G50U: the self-cleavage amounted to 0.0779.
Turning to G2A G50C, the self-cleavage was 0.205.
Under G2A C26U stands 0.138; under G2A U12C, 0.0627; under G1U U60A, 0.343.
As to G2A G59U, the self-cleavage was 0.19.
In the case of G2A G59C it was 0.244; in that of G2A C15U, 0.113; in that of G2A C15A, 0.0382.
G2C C63A: the self-cleavage turned out to be 0.0213.
In the case of G2C A56C, the self-cleavage turned out to be 0.0678.
Turning to G2C A56U, the self-cleavage amounted to 0.0482.
Take G2C A56G: the self-cleavage stood at 0.0332.
Under G2C stands 0.0584; under G2U, 0.0584.
Turning to G2A, the self-cleavage turned out to be 0.2.
G1U U20G: the self-cleavage came to 0.285.
Consider G1U U20A, for which the self-cleavage was determined as 0.289.
As to G1U U46C, the self-cleavage turned out to be 0.277.
As for G2C G53A, the self-cleavage came out at 0.108.
In the case of G2U C36G it was 0.185; in that of G2C G6U, 0.0601; in that of G2C A51G, 0.0831.
With G2C C26A, the self-cleavage turned out to be 0.314.
Turning to G2C C14G, the self-cleavage was determined as 0.0773.
In the case of G2U C44G it was 0; in that of G2C C18G, 0.
In the case of G2C U9C it was 0.128.
Regarding G2A G81A, the self-cleavage was determined as 0.0692.
For the variant G2A G81U, the self-cleavage stood at 0.0346.
In the case of G2A G81C, the self-cleavage was 0.115.
Under G2C A78U stands 0.132.
Regarding G2C A78G, the self-cleavage worked out at 0.0875.
With G2U A83G, the self-cleavage worked out at 0.0815.
As to G2U A83C, the self-cleavage worked out at 0.0594.
On to G2U A83U, for which the self-cleavage stood at 0.0536.
With G2C G52A, the self-cleavage amounted to 0.113.
With G2C G80C, the self-cleavage is 0.154.
In the case of G2C G80U, the self-cleavage is 0.0392.
As for G2U C61A, the self-cleavage was determined as 0.0913.
For the variant G2U C61G, the self-cleavage was 0.0386.
With G2U C13G, the self-cleavage stood at 0.
As to G2U C13A, the self-cleavage was determined as 0.
For G2C C36U, the self-cleavage amounted to 0.0799.
Turning to G2C C36A, the self-cleavage worked out at 0.138.
Turning to G2A C49A, the self-cleavage is 0.122.
Regarding G2A C49G, the self-cleavage worked out at 0.135.
In the case of G2C U12G it was 0.0426; in that of G2C U12A, 0.17; in that of G2U A45C, 0.
Turning to G2U A45G, the self-cleavage was found to be 0.
Turning to G2U C7A, the self-cleavage turned out to be 0.013.
For the variant G2U C7U, the self-cleavage was determined as 0.0264.
G2A C14U: the self-cleavage worked out at 0.169.
G2A C14G: the self-cleavage came out at 0.0773.
With G2U C21G, the self-cleavage turned out to be 0.0594.
For the variant G2A U65A, the self-cleavage is 0.173.
Under G2C G50C stands 0.0277; under G2C G50A, 0.138.
For G2C G82U, the self-cleavage is 0.
Under G2U C32A stands 0.0302; under G2U C32U, 0.0437.
As to G2C A16G, the self-cleavage is 0.131.
Under G2C A16U stands 0.0282.
Consider G1U U69A, for which the self-cleavage amounted to 0.332.
Under G1U U69C stands 0.259.
Turning to G2C G25A, the self-cleavage stood at 0.0528.
As to G2C C84A, the self-cleavage is 0.0462.
As to G2C C84G, the self-cleavage is 0.0639.
For the variant G2A G35A, the self-cleavage was 0.0569.
G2A G35U: the self-cleavage amounted to 0.0602.
G2C C48G: the self-cleavage was 0.0545.
In the case of G2C C48A it was 0.
Take G2C C32G: the self-cleavage is 0.0554.
Take G2C C32A: the self-cleavage was determined as 0.0712.
As to G2C C32U, the self-cleavage is 0.101.
Consider G2A C4U, for which the self-cleavage is 0.163.
Under G2A G39U stands 0.0305; under G2A G39C, 0.0712.
Regarding G2C A70U, the self-cleavage turned out to be 0.0601.
In the case of G2C A70G it was 0.
G2C C13A: the self-cleavage stood at 0.0707.
As for G2U A43C, the self-cleavage was determined as 0.0292.
Regarding G2U A43U, the self-cleavage is 0.0866.
With G2C C19G, the self-cleavage is 0.102.
As to G2C C19A, the self-cleavage was 0.106.
As to G2U A78C, the self-cleavage turned out to be 0.0198.
Under G2U A78U stands 0.
As for G2U A42U, the self-cleavage stood at 0.0647.
